Reference: US20150344570A1 (published 2015)

T1: FcγRIIb extracellular domain with C-terminal His tag (human, UniProt P31994 43-217)
T1 construct: extracellular domain; Soluble receptor expressed in FreeStyle293 cells and used as analyte in Biacore; also called FcgRIIb; 2b; not shown: His tag attached to the C terminus
T1 sequence (looked up): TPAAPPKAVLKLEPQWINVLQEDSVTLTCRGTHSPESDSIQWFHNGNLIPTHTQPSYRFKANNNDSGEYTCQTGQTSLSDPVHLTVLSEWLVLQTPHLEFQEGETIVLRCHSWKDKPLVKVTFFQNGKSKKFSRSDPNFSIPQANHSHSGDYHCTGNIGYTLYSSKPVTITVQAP

B1: GpH7-A5/GpH7-B3 variant D270_08L/GpL16-k0 (antibody, human IgG1, kappa)
heavy 1: not shown
heavy 2: not shown
light: DIVMTQSPLSLPVTPGEPASISCQASESLVHSNRNTYLHWYLQKPGQSPQLLIYKVSNRFSGVPDRFSGSGSGTDFTLKISRVEAEDVGVYYCSQNTHVPPTFGQGTKVEIERTVAAPSVFIFPPSDEQLKSGTASVVCLLNNFYPREAKVQWKVDNALQSGNSQESVTEQDSKDSTYSLSSTLTLSKADYEKHKVYACEVTHQGLSSPVTKSFNRGEC
notes: Heterodimerized anti-glypican-3 IgG1 with the alteration in only one H chain; also called He Ab
B2: GpH7-A5/GpH7-B3 variant D270_12R/GpL16-k0 (antibody, human IgG1, kappa)
heavy 1: not shown
heavy 2: not shown
light: DIVMTQSPLSLPVTPGEPASISCQASESLVHSNRNTYLHWYLQKPGQSPQLLIYKVSNRFSGVPDRFSGSGSGTDFTLKISRVEAEDVGVYYCSQNTHVPPTFGQGTKVEIERTVAAPSVFIFPPSDEQLKSGTASVVCLLNNFYPREAKVQWKVDNALQSGNSQESVTEQDSKDSTYSLSSTLTLSKADYEKHKVYACEVTHQGLSSPVTKSFNRGEC
notes: as for B1
B3: GpH7-A5/GpH7-B3 variant D270_15Y/GpL16-k0 (antibody, human IgG1, kappa)
heavy 1: not shown
heavy 2: not shown
light: DIVMTQSPLSLPVTPGEPASISCQASESLVHSNRNTYLHWYLQKPGQSPQLLIYKVSNRFSGVPDRFSGSGSGTDFTLKISRVEAEDVGVYYCSQNTHVPPTFGQGTKVEIERTVAAPSVFIFPPSDEQLKSGTASVVCLLNNFYPREAKVQWKVDNALQSGNSQESVTEQDSKDSTYSLSSTLTLSKADYEKHKVYACEVTHQGLSSPVTKSFNRGEC
notes: as for B1
B4: GpH7-A5/GpH7-B3 variant D270_19Q/GpL16-k0 (antibody, human IgG1, kappa)
heavy 1: not shown
heavy 2: not shown
light: DIVMTQSPLSLPVTPGEPASISCQASESLVHSNRNTYLHWYLQKPGQSPQLLIYKVSNRFSGVPDRFSGSGSGTDFTLKISRVEAEDVGVYYCSQNTHVPPTFGQGTKVEIERTVAAPSVFIFPPSDEQLKSGTASVVCLLNNFYPREAKVQWKVDNALQSGNSQESVTEQDSKDSTYSLSSTLTLSKADYEKHKVYACEVTHQGLSSPVTKSFNRGEC
notes: as for B1
B5: GpH7-A5/GpH7-B3 variant D270_13S/GpL16-k0 (antibody, human IgG1, kappa)
heavy 1: not shown
heavy 2: not shown
light: DIVMTQSPLSLPVTPGEPASISCQASESLVHSNRNTYLHWYLQKPGQSPQLLIYKVSNRFSGVPDRFSGSGSGTDFTLKISRVEAEDVGVYYCSQNTHVPPTFGQGTKVEIERTVAAPSVFIFPPSDEQLKSGTASVVCLLNNFYPREAKVQWKVDNALQSGNSQESVTEQDSKDSTYSLSSTLTLSKADYEKHKVYACEVTHQGLSSPVTKSFNRGEC
notes: as for B1
B6: GpH7-A5/GpH7-B3 variant E269_06M/GpL16-k0 (antibody, human IgG1, kappa)
heavy 1: not shown
heavy 2: not shown
light: DIVMTQSPLSLPVTPGEPASISCQASESLVHSNRNTYLHWYLQKPGQSPQLLIYKVSNRFSGVPDRFSGSGSGTDFTLKISRVEAEDVGVYYCSQNTHVPPTFGQGTKVEIERTVAAPSVFIFPPSDEQLKSGTASVVCLLNNFYPREAKVQWKVDNALQSGNSQESVTEQDSKDSTYSLSSTLTLSKADYEKHKVYACEVTHQGLSSPVTKSFNRGEC
notes: as for B1
B7: GpH7-A5/GpH7-B3 variant E269_11K/GpL16-k0 (antibody, human IgG1, kappa)
heavy 1: not shown
heavy 2: not shown
light: DIVMTQSPLSLPVTPGEPASISCQASESLVHSNRNTYLHWYLQKPGQSPQLLIYKVSNRFSGVPDRFSGSGSGTDFTLKISRVEAEDVGVYYCSQNTHVPPTFGQGTKVEIERTVAAPSVFIFPPSDEQLKSGTASVVCLLNNFYPREAKVQWKVDNALQSGNSQESVTEQDSKDSTYSLSSTLTLSKADYEKHKVYACEVTHQGLSSPVTKSFNRGEC
notes: as for B1
B8: GpH7-A5/GpH7-B3 variant E269_12R/GpL16-k0 (antibody, human IgG1, kappa)
heavy 1: not shown
heavy 2: not shown
light: DIVMTQSPLSLPVTPGEPASISCQASESLVHSNRNTYLHWYLQKPGQSPQLLIYKVSNRFSGVPDRFSGSGSGTDFTLKISRVEAEDVGVYYCSQNTHVPPTFGQGTKVEIERTVAAPSVFIFPPSDEQLKSGTASVVCLLNNFYPREAKVQWKVDNALQSGNSQESVTEQDSKDSTYSLSSTLTLSKADYEKHKVYACEVTHQGLSSPVTKSFNRGEC
notes: as for B1
B9: GpH7-A5/GpH7-B3 variant E269_03V/GpL16-k0 (antibody, human IgG1, kappa)
heavy 1: not shown
heavy 2: not shown
light: DIVMTQSPLSLPVTPGEPASISCQASESLVHSNRNTYLHWYLQKPGQSPQLLIYKVSNRFSGVPDRFSGSGSGTDFTLKISRVEAEDVGVYYCSQNTHVPPTFGQGTKVEIERTVAAPSVFIFPPSDEQLKSGTASVVCLLNNFYPREAKVQWKVDNALQSGNSQESVTEQDSKDSTYSLSSTLTLSKADYEKHKVYACEVTHQGLSSPVTKSFNRGEC
notes: as for B1
B10: GpH7-A5/GpH7-B3 variant E269_08L/GpL16-k0 (antibody, human IgG1, kappa)
heavy 1: not shown
heavy 2: not shown
light: DIVMTQSPLSLPVTPGEPASISCQASESLVHSNRNTYLHWYLQKPGQSPQLLIYKVSNRFSGVPDRFSGSGSGTDFTLKISRVEAEDVGVYYCSQNTHVPPTFGQGTKVEIERTVAAPSVFIFPPSDEQLKSGTASVVCLLNNFYPREAKVQWKVDNALQSGNSQESVTEQDSKDSTYSLSSTLTLSKADYEKHKVYACEVTHQGLSSPVTKSFNRGEC
notes: as for B1
B11: GpH7-A5/GpH7-B3 variant D270_10E/GpL16-k0 (antibody, human IgG1, kappa)
heavy 1: not shown
heavy 2: not shown
light: DIVMTQSPLSLPVTPGEPASISCQASESLVHSNRNTYLHWYLQKPGQSPQLLIYKVSNRFSGVPDRFSGSGSGTDFTLKISRVEAEDVGVYYCSQNTHVPPTFGQGTKVEIERTVAAPSVFIFPPSDEQLKSGTASVVCLLNNFYPREAKVQWKVDNALQSGNSQESVTEQDSKDSTYSLSSTLTLSKADYEKHKVYACEVTHQGLSSPVTKSFNRGEC
notes: as for B1
B12: GpH7-A5/GpH7-B3 variant D270_18N/GpL16-k0 (antibody, human IgG1, kappa)
heavy 1: not shown
heavy 2: not shown
light: DIVMTQSPLSLPVTPGEPASISCQASESLVHSNRNTYLHWYLQKPGQSPQLLIYKVSNRFSGVPDRFSGSGSGTDFTLKISRVEAEDVGVYYCSQNTHVPPTFGQGTKVEIERTVAAPSVFIFPPSDEQLKSGTASVVCLLNNFYPREAKVQWKVDNALQSGNSQESVTEQDSKDSTYSLSSTLTLSKADYEKHKVYACEVTHQGLSSPVTKSFNRGEC
notes: as for B1
B13: GpH7-A5/GpH7-B3 variant D270_11K/GpL16-k0 (antibody, human IgG1, kappa)
heavy 1: not shown
heavy 2: not shown
light: DIVMTQSPLSLPVTPGEPASISCQASESLVHSNRNTYLHWYLQKPGQSPQLLIYKVSNRFSGVPDRFSGSGSGTDFTLKISRVEAEDVGVYYCSQNTHVPPTFGQGTKVEIERTVAAPSVFIFPPSDEQLKSGTASVVCLLNNFYPREAKVQWKVDNALQSGNSQESVTEQDSKDSTYSLSSTLTLSKADYEKHKVYACEVTHQGLSSPVTKSFNRGEC
notes: as for B1
B14: GpH7-A5/GpH7-B3 variant E269_07I/GpL16-k0 (antibody, human IgG1, kappa)
heavy 1: not shown
heavy 2: not shown
light: DIVMTQSPLSLPVTPGEPASISCQASESLVHSNRNTYLHWYLQKPGQSPQLLIYKVSNRFSGVPDRFSGSGSGTDFTLKISRVEAEDVGVYYCSQNTHVPPTFGQGTKVEIERTVAAPSVFIFPPSDEQLKSGTASVVCLLNNFYPREAKVQWKVDNALQSGNSQESVTEQDSKDSTYSLSSTLTLSKADYEKHKVYACEVTHQGLSSPVTKSFNRGEC
notes: as for B1

Experiments:
[1] = molecular target: T2, FcγRIIIa extracellular domain with C-terminal His tag (human, UniProt P08637 17-208); assay: SPR (Biacore), antibody captured, FcγR as analyte; binding activity relative to control heterodimerized antibody
T2 construct: extracellular domain; also called FcgRIIIa; 3a; not shown: His tag attached to the C terminus
Method: (§1) The heterodimerized antibodies He Abs in which one of the H chains was introduced with an alteration were assayed for their binding activities to each activating FcγR and inhibitory FcγR according to the method described in Example 4. […] The activating FcγRs in FIGS. 26, 27, 28, and 29 are FcγRIa, FcγRIIa (R), FcγRIIa (H), and FcγRIIIa, respectively.
(§2) Analysis of interaction between objective antibody and the FcγR was carried out using Biacore T100 (GE Healthcare). HBS-EP+ (GE Healthcare) was used as the running buffer, and the measurement temperature was set to 25° C. Chips produced by immobilizing the antigen peptide by the amine coupling method to a Series S Sencor Chip CM5 (GE Healthcare), or alternatively, chips produced by allowing preliminarily biotinylated antigen peptides to interact with and immobilize onto a Series S Sensor Chip SA (certified) (GE Healthcare) were used. Antibodies of interest were captured onto an antigen peptide-immobilized chip, and allowed to interact to each FcγR diluted with running buffer. To regenerate and repeatedly use the chip, the antibodies captured on the chip were washed off by reacting 10 mM glycine-HCl, pH 1.5.

[2] = molecular target: T1, FcγRIIb extracellular domain with …; assay: as above
Method: as §1, §2

[3] = molecular target: T2, FcγRIIIa extracellular domain with …; assay: SPR (Biacore); He/Con_3a divided by He/Con_2b (FcγRIIIa over FcγRIIb)
Method: as §1, §2

T2 sequence (P08637 17-208): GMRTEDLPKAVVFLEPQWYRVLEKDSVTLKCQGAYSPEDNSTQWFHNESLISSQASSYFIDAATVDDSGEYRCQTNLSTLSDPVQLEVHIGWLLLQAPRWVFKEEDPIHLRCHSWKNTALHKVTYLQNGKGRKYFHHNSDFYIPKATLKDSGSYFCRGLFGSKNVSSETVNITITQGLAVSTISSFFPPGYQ

Binder	He/Con_3a [1]	He/Con_2b [2]	He_3a/2b [3]
B1	71.8 % of GpH7-A5/GpH7-B3/GpL16-k0 (=100)	53.6 % of GpH7-A5/GpH7-B3/GpL16-k0 (=100)	1.34 ratio
B2	28.8 % of GpH7-A5/GpH7-B3/GpL16-k0 (=100)	18.3 % of GpH7-A5/GpH7-B3/GpL16-k0 (=100)	1.58 ratio
B3	54.5 % of GpH7-A5/GpH7-B3/GpL16-k0 (=100)	44.9 % of GpH7-A5/GpH7-B3/GpL16-k0 (=100)	1.22 ratio
B4	81.9 % of GpH7-A5/GpH7-B3/GpL16-k0 (=100)	48 % of GpH7-A5/GpH7-B3/GpL16-k0 (=100)	1.7 ratio
B5	56.7 % of GpH7-A5/GpH7-B3/GpL16-k0 (=100)	44.2 % of GpH7-A5/GpH7-B3/GpL16-k0 (=100)	1.28 ratio
B6	58.5 % of GpH7-A5/GpH7-B3/GpL16-k0 (=100)	46.7 % of GpH7-A5/GpH7-B3/GpL16-k0 (=100)	1.25 ratio
B7	44 % of GpH7-A5/GpH7-B3/GpL16-k0 (=100)	17.8 % of GpH7-A5/GpH7-B3/GpL16-k0 (=100)	2.47 ratio
B8	43.2 % of GpH7-A5/GpH7-B3/GpL16-k0 (=100)	25.2 % of GpH7-A5/GpH7-B3/GpL16-k0 (=100)	1.72 ratio
B9	56.6 % of GpH7-A5/GpH7-B3/GpL16-k0 (=100)	45.1 % of GpH7-A5/GpH7-B3/GpL16-k0 (=100)	1.25 ratio
B10	52.1 % of GpH7-A5/GpH7-B3/GpL16-k0 (=100)	42.9 % of GpH7-A5/GpH7-B3/GpL16-k0 (=100)	1.21 ratio
B11	123 % of GpH7-A5/GpH7-B3/GpL16-k0 (=100)	76.5 % of GpH7-A5/GpH7-B3/GpL16-k0 (=100)	1.61 ratio
B12	56.5 % of GpH7-A5/GpH7-B3/GpL16-k0 (=100)	40.3 % of GpH7-A5/GpH7-B3/GpL16-k0 (=100)	1.4 ratio
B13	41 % of GpH7-A5/GpH7-B3/GpL16-k0 (=100)	20.3 % of GpH7-A5/GpH7-B3/GpL16-k0 (=100)	2.02 ratio
B14	55.8 % of GpH7-A5/GpH7-B3/GpL16-k0 (=100)	43.9 % of GpH7-A5/GpH7-B3/GpL16-k0 (=100)	1.27 ratio
